From publication PMC8938473

Target: T1, His6-CRP (cAMP receptor protein) (Shewanella putrefaciens CN32) (UniProt A0ABX8XCW1)
T1 sequence: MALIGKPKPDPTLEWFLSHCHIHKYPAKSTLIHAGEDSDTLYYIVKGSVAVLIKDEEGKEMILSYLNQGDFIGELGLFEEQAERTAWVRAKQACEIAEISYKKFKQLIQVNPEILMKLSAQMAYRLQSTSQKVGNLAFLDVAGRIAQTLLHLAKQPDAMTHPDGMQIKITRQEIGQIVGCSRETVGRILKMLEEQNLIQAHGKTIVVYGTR
Assay: EMSA
Conditions: EMSA per DIG Gel Shift Kit 2nd Generation (Roche) protocol, 1 uM cAMP when necessary; buffer, salt, pH and temperature not given

ACCGATCCCATAATTAGCTCCCAACACCCAAGTGTTAATCCAAACAAAGGCCCACAAATCCAACAAATGTATGGAAGTGTGATACAAGTGGTGGAATTTTAGCTAATGAGCGAATGGAAGTCAATTTTTTGACGCGCCTCTATCGCTTGGTATTAAGGCTTTTTCTTGCGCATTACCTGTAAAATTGACGCTGGTTTTGTATAAAACTAGATGTTGTATGTTTATTTGTA (double strand) [bpfA-pro]
binding: binds
